According to publication PMC9482650, “Quantitative fragmentomics allow affinity mapping of interactomes” (Nature Communications, 2022):
Residue numbers refer to the chain shown, from its start.

T1: MPDZ_5, O75970
T1 sequence (O75970 695-796, limits assumed, looked up): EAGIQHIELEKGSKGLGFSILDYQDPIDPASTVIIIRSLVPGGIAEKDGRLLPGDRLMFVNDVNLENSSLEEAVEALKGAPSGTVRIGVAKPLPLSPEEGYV

T2: GRIP1_7, Q9Y3R0
T2 sequence (Q9Y3R0 999-1096, limits assumed, looked up): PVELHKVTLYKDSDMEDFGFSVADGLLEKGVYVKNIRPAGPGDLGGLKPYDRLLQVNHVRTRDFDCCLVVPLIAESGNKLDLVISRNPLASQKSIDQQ

T3: SNTG1, Q9NSN8
T3 sequence (Q9NSN8 52-150, limits assumed, looked up): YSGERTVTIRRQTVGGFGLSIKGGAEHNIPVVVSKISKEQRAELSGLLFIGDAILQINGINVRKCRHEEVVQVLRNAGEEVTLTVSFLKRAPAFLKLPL

T4: DFNB31_3, Q9P202
T4 sequence (Q9P202 811-907, limits assumed, looked up): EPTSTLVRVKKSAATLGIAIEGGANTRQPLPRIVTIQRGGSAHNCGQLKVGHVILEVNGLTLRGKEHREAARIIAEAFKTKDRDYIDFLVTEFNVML

T5: RAPGEF6, Q8TEU7
T5 sequence (Q8TEU7 525-625, limits assumed, looked up): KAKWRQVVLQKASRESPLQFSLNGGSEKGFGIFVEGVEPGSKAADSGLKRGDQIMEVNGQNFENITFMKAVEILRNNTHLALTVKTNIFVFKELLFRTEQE

T6: PTPN13_1, Q12923
T6 sequence (Q12923 1088-1188, limits assumed, looked up): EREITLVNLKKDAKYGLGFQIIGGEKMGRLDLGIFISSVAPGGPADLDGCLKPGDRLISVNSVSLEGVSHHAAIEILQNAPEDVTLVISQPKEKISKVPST

T7: SNTB1, Q13884
T7 sequence (Q13884 107-205, limits assumed, looked up): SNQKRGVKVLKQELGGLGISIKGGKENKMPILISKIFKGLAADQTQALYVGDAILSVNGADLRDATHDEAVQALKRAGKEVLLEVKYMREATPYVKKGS

T8: NHERF3_3, Q5T2W1
T8 sequence (Q5T2W1 238-333, limits assumed, looked up): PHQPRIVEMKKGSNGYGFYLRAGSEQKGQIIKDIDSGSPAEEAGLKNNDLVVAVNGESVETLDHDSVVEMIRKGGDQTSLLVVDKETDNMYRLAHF

T9: LIN7C, Q9NUP9
T9 sequence (Q9NUP9 88-185, limits assumed, looked up): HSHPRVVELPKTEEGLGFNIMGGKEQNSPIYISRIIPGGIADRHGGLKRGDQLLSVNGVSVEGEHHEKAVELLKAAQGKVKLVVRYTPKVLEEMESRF

T10: LIN7A, O14910
T10 sequence (O14910 103-200, limits assumed, looked up): T9 sequence (Q9NUP9 88-185, limits assumed, looked up) with E13D, I20V, I40V, D42E, Q77K, G78D, K79S, S96A

T11: PDZD2_2, O15018
T11 sequence (O15018 329-429, limits assumed, looked up): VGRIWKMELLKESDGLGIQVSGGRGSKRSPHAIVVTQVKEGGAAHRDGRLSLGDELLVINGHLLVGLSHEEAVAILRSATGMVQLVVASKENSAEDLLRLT

T12: GRIP1_4, Q9Y3R0
T12 sequence (Q9Y3R0 467-571, limits assumed, looked up): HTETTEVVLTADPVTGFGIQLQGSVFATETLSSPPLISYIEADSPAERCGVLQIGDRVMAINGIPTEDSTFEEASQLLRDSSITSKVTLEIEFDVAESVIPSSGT

T13: SYNJ2BP, P57105
T13 sequence (P57105 8-110, limits assumed, looked up): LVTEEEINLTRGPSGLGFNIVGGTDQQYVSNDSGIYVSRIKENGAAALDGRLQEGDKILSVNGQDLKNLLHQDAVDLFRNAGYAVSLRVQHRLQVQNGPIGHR

B1: SCN4A, P35499 (peptide)
chain: VRPGVKESLV
B2: PKN2, Q16513 (peptide)
chain: RDFDYIADWC

biological target: T1, MPDZ_5, O75970; experiment: holdup assay; parameters: key: below the threshold = too weak to quantify, mostly under pKd 3.1 to 4; settings: plain residues with an end cap or a label only (N-terminal biotin on a linker: ado-ado)

Binder | pKd
B1 | below the threshold
B2 | below the threshold

biological target: Inadl_5, Q8NI35; experiment: holdup assay; parameters: key: below the threshold = too weak to quantify, mostly under pKd 3.1 to 4; settings: plain residues with an end cap or a label only (N-terminal biotin on a linker: ado-ado)
Sequence (Q8NI35 673-780): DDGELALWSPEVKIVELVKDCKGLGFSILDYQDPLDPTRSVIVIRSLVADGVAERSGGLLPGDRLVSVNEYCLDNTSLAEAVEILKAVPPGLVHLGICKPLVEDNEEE

Binder | pKd
B1 | below the threshold
B2 | below the threshold

biological target: PICK1, Q9NRD5; experiment: holdup assay; parameters: key: below the threshold = too weak to quantify, mostly under pKd 3.1 to 4; settings: plain residues with an end cap or a label only (N-terminal biotin on a linker: ado-ado)
Sequence (Q9NRD5 17-115): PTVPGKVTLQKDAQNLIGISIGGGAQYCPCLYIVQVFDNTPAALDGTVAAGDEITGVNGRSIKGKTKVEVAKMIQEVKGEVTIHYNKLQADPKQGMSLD

Binder | pKd
B1 | below the threshold
B2 | 4.06

biological target: T2, GRIP1_7, Q9Y3R0; experiment: holdup assay; parameters: key: below the threshold = too weak to quantify, mostly under pKd 3.1 to 4; settings: plain residues with an end cap or a label only (N-terminal biotin on a linker: ado-ado)

Binder | pKd
B1 | below the threshold
B2 | below the threshold

biological target: GRID2IP_1, A4D2P6; experiment: holdup assay; parameters: key: below the threshold = too weak to quantify, mostly under pKd 3.1 to 4; settings: plain residues with an end cap or a label only (N-terminal biotin on a linker: ado-ado)
Sequence (A4D2P6 1-87): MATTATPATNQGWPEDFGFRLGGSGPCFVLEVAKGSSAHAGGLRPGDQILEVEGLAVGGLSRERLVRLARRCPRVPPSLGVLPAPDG

Binder | pKd
B1 | below the threshold
B2 | below the threshold

biological target: MAST2, Q6P0Q8; experiment: holdup assay; parameters: key: below the threshold = too weak to quantify, mostly under pKd 3.1 to 4; settings: plain residues with an end cap or a label only (N-terminal biotin on a linker: ado-ado)
Sequence (Q6P0Q8 1099-1202): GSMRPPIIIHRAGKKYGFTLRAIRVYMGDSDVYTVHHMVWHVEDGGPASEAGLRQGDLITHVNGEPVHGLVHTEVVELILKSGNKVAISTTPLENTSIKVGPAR

Binder | pKd
B1 | 4.87
B2 | 3.64

biological target: T3, SNTG1, Q9NSN8; experiment: holdup assay; parameters: key: below the threshold = too weak to quantify, mostly under pKd 3.1 to 4; settings: plain residues with an end cap or a label only (N-terminal biotin on a linker: ado-ado)

Binder | pKd
B1 | 4.85
B2 | below the threshold

biological target: T4, DFNB31_3, Q9P202; experiment: holdup assay; parameters: key: below the threshold = too weak to quantify, mostly under pKd 3.1 to 4; settings: plain residues with an end cap or a label only (N-terminal biotin on a linker: ado-ado)

Binder | pKd
B1 | below the threshold
B2 | below the threshold

biological target: T5, RAPGEF6, Q8TEU7; experiment: holdup assay; parameters: key: below the threshold = too weak to quantify, mostly under pKd 3.1 to 4; settings: plain residues with an end cap or a label only (N-terminal biotin on a linker: ado-ado)

Binder | pKd
B1 | below the threshold
B2 | below the threshold

biological target: FRMPD3, Q5JV73; experiment: holdup assay; parameters: key: below the threshold = too weak to quantify, mostly under pKd 3.1 to 4; settings: plain residues with an end cap or a label only (N-terminal biotin on a linker: ado-ado)
Sequence (Q5JV73 12-100): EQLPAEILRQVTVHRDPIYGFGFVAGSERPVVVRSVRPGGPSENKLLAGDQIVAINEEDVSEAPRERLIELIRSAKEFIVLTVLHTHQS

Binder | pKd
B1 | below the threshold
B2 | 3.48

biological target: T6, PTPN13_1, Q12923; experiment: holdup assay; parameters: key: below the threshold = too weak to quantify, mostly under pKd 3.1 to 4; settings: plain residues with an end cap or a label only (N-terminal biotin on a linker: ado-ado)

Binder | pKd
B1 | below the threshold
B2 | below the threshold

biological target: LNX1_3, Q8TBB1; experiment: holdup assay; parameters: key: below the threshold = too weak to quantify, mostly under pKd 3.1 to 4; settings: plain residues with an end cap or a label only (N-terminal biotin on a linker: ado-ado)
Sequence (Q8TBB1 500-596): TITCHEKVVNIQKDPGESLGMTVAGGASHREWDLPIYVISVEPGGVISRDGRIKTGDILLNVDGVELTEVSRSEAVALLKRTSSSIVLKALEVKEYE

Binder | pKd
B1 | below the threshold
B2 | below the threshold

biological target: TJP1_3, Q07157; experiment: holdup assay; parameters: key: below the threshold = too weak to quantify, mostly under pKd 3.1 to 4; settings: plain residues with an end cap or a label only (N-terminal biotin on a linker: ado-ado)
Sequence (Q07157 416-512): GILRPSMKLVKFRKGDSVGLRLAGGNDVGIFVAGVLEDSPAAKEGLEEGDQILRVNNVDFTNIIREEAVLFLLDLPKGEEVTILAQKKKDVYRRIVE

Binder | pKd
B1 | below the threshold
B2 | 3.89

biological target: AHNAK1, Q09666; experiment: holdup assay; parameters: key: below the threshold = too weak to quantify, mostly under pKd 3.1 to 4; settings: plain residues with an end cap or a label only (N-terminal biotin on a linker: ado-ado)
Sequence (Q09666 4-100): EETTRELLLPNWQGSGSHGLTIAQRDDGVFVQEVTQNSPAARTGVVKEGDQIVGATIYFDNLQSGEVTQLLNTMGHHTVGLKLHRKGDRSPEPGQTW

Binder | pKd
B1 | below the threshold
B2 | below the threshold

biological target: T7, SNTB1, Q13884; experiment: holdup assay; parameters: key: below the threshold = too weak to quantify, mostly under pKd 3.1 to 4; settings: plain residues with an end cap or a label only (N-terminal biotin on a linker: ado-ado)

Binder | pKd
B1 | 5.05
B2 | below the threshold

biological target: T8, NHERF3_3, Q5T2W1; experiment: holdup assay; parameters: key: below the threshold = too weak to quantify, mostly under pKd 3.1 to 4; settings: plain residues with an end cap or a label only (N-terminal biotin on a linker: ado-ado)

Binder | pKd
B1 | below the threshold
B2 | below the threshold

biological target: MAGI2_5, Q86UL8; experiment: holdup assay; parameters: key: below the threshold = too weak to quantify, mostly under pKd 3.1 to 4; settings: plain residues with an end cap or a label only (N-terminal biotin on a linker: ado-ado)
Sequence (Q86UL8 915-1017): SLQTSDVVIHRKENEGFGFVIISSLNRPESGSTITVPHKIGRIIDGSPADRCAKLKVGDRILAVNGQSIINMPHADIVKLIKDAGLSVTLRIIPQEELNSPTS

Binder | pKd
B1 | 5.03
B2 | 3.95

biological target: T9, LIN7C, Q9NUP9; experiment: holdup assay; parameters: key: below the threshold = too weak to quantify, mostly under pKd 3.1 to 4; settings: plain residues with an end cap or a label only (N-terminal biotin on a linker: ado-ado)

Binder | pKd
B1 | 4.38
B2 | below the threshold

biological target: T10, LIN7A, O14910; experiment: holdup assay; parameters: key: below the threshold = too weak to quantify, mostly under pKd 3.1 to 4; settings: plain residues with an end cap or a label only (N-terminal biotin on a linker: ado-ado)

Binder | pKd
B1 | 3.94
B2 | below the threshold

biological target: T11, PDZD2_2, O15018; experiment: holdup assay; parameters: key: below the threshold = too weak to quantify, mostly under pKd 3.1 to 4; settings: plain residues with an end cap or a label only (N-terminal biotin on a linker: ado-ado)

Binder | pKd
B1 | 5.17
B2 | 5.54

biological target: FRMPD2_2, Q68DX3; experiment: holdup assay; parameters: key: below the threshold = too weak to quantify, mostly under pKd 3.1 to 4; settings: plain residues with an end cap or a label only (N-terminal biotin on a linker: ado-ado)
Sequence (Q68DX3 944-1038): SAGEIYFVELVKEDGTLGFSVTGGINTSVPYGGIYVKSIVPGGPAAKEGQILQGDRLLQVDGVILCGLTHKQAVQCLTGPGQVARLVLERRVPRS

Binder | pKd
B1 | 3.91
B2 | below the threshold

biological target: T12, GRIP1_4, Q9Y3R0; experiment: holdup assay; parameters: key: below the threshold = too weak to quantify, mostly under pKd 3.1 to 4; settings: plain residues with an end cap or a label only (N-terminal biotin on a linker: ado-ado)

Binder | pKd
B1 | below the threshold
B2 | below the threshold

biological target: T13, SYNJ2BP, P57105; experiment: holdup assay; parameters: key: below the threshold = too weak to quantify, mostly under pKd 3.1 to 4; settings: plain residues with an end cap or a label only (N-terminal biotin on a linker: ado-ado)

Binder | pKd
B1 | 5.09
B2 | 3.73

biological target: GORASP2, Q9H8Y8; experiment: holdup assay; parameters: key: below the threshold = too weak to quantify, mostly under pKd 3.1 to 4; settings: plain residues with an end cap or a label only (N-terminal biotin on a linker: ado-ado)

Binder | pKd
B1 | below the threshold
B2 | 3.87
